Target: human pituitary adenylate cyclase-activating polypeptide type I receptor (human) (UniProt P41586)
Experiment: cell-based or functional assay

Sequence of human pituitary adenylate cyclase-activating polypeptide type I receptor (human) (P41586 21-468): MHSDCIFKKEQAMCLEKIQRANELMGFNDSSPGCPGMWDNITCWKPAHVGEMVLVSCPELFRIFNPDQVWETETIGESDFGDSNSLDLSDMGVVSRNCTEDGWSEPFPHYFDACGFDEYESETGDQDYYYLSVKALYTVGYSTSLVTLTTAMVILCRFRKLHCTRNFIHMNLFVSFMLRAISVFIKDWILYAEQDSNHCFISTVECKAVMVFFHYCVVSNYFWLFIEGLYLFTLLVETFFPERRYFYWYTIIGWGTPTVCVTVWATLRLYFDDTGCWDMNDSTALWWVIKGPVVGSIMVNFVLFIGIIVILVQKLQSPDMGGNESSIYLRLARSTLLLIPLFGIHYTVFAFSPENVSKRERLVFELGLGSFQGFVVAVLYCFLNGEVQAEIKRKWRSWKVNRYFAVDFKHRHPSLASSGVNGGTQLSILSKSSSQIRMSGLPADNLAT

B1: VIP (ligand, UniProt P01282 125-152, looked up)
peptide: HSDAVFTDNYTRLRKQMAVKKYLNSILN
B1 gave a PAC1 EC50 (agonist activity) of 2.3 nM.

— patent US20180362645A1
